What was measured:
[1] = tested on: Bmal1^−/−; Per2^Luc fibroblasts complemented with WT or trans-locked Bmal1; experiment: CsA-induced period change in complemented Bmal1-/-; assay type: cell-based, mouse; details: particularly at 10 μM CsA
U2OS Bmal1-dLuc cells = experiment: Circadian period of U2OS Bmal1-dLuc cells with inhibitors; assay type: cell-based, human; details: 0.3% DMSO, n = 3 replicates with 2 independent assays
cyclophilin family = details: active site; ref Davis et al., 2010; cited from earlier work
BMAL1 = details: screen for interacting partners; ref Lipton et al., 2015; cited from earlier work
MLL1 = details: ref Wang et al., 2010; cited from earlier work
BMAL1 TAD = experiment: Cyclophilin acceleration of TAD switch isomerization by 15N-1H ZZ-exchange NMR; assay type: biochemical, mouse; details: room temperature (22.68°C), 400 μM 15N BMAL1 TAD + 100 μM cyclophilin, 20 mM HEPES pH 7.0 (pH 7.5 for His6GST-PPIL3), 100 mM NaCl, 2 mM TCEP
[2] = tested on: W624-P625 imide bond of BMAL1 TAD; experiment: 15N-1H ZZ-exchange NMR kinetics of TAD switch isomerization; parameters: species or system mouse
[3] = tested on: Bmal1^−/−; Per2^Luc mouse fibroblasts; experiment: Circadian period of complemented Bmal1-/-; assay type: cell-based; details: stable complementation, 37°C, dexamethasone-synchronized
[4] = 25 °C, extrapolated from Eyring plot
[5] = 37 °C, extrapolated from Eyring plot
[6] = 55 °C, 400 μM 15N BMAL1 TAD, 10 mM MES pH 6.5, 50 mM NaCl, 10% D2O
[7] = 60 °C, 400 μM 15N BMAL1 TAD, 10 mM MES pH 6.5, 50 mM NaCl, 10% D2O
[8] = 65 °C, 400 μM 15N BMAL1 TAD, 10 mM MES pH 6.5, 50 mM NaCl, 10% D2O

In the case of Cyclosporin A [CsA], the “switch-independent effect on period” value [1] is given as “Switch-independent changes in period”, the “effect on circadian period” value (U2OS Bmal1-dLuc cells) is given as “dose-dependent lengthening of circadian period with low doses” and the “affinity for cyclophilin family” value (cyclophilin family) is given as 5 to 500 nM.

For “PPIA: peptidyl prolyl isomerase A, human cyclophilin”, the “co-immunoprecipitation with BMAL1” value (BMAL1) is given as “co-immunoprecipitated with BMAL1”.

For “PPIE: human nuclear cyclophilin [reference compound]”, the “binding to MLL1” value (MLL1) is listed as “binds to the histone methyltransferase MLL1 to modulate its activity” and the “activity on TAD switch isomerization, in words” value (from here on “activity”) (BMAL1 TAD) is listed as “significantly increased the rate of isomerization in BMAL1”.

With `CC1(C)[C@H](C(=O)O[C@H](C#N)c2cccc(Oc3ccccc3)c2)[C@@H]1C=C(Br)Br` [Deltamethrin] the “effect on circadian period” value (U2OS Bmal1-dLuc cells) was “did not elicit a change in period”.

In the case of “BMAL1 TAD: Mouse BMAL1 TAD (residues 579–626), recombinant”, the overall exchange lifetime ([2]; 25 °C) is reported as “approximately 10 minutes”, the “Rate of isomerization cis➔trans” value [2, 4] is reported as 0.00458 s⁻¹ and the “Rate of isomerization trans➔cis” value [2, 4] is reported as 0.00264 s⁻¹. For the same molecule, the “Time per isomerization event cis➔trans” value [2, 4] was 218.34 s, the “Time per isomerization event trans➔cis” value [2, 4] was 378.78 s and the “detection of isomerization by ZZ exchange” value ([2]; 25 °C, in words) was “too slow to be detected at room temperature”. The “Rate of isomerization cis➔trans” value [2, 5] was 0.0233 s⁻¹, the “Rate of isomerization trans➔cis” value [2, 5] was 0.0135 s⁻¹ and the “Time per isomerization event cis➔trans” value [2, 5] was 42.92 s. The “Time per isomerization event trans➔cis” value [2, 5] was 74.07 s, the “Time per isomerization event cis➔trans” value ([2]; 55 °C) was 4.65 s and the “Time per isomerization event trans➔cis” value ([2]; 55 °C) was 8.06 s. The “Rate of isomerization cis➔trans” value [2, 6] was 0.215 s⁻¹, the “Rate of isomerization trans➔cis” value [2, 6] was 0.124 s⁻¹ and the “Time per isomerization event cis➔trans” value ([2]; 60 °C) was 2.62 s. The “Time per isomerization event trans➔cis” value ([2]; 60 °C) was 4.55 s, the “Rate of isomerization cis➔trans” value [2, 7] was 0.382 s⁻¹ and the “Rate of isomerization trans➔cis” value [2, 7] was 0.22 s⁻¹. For the same molecule, the “Time per isomerization event cis➔trans” value ([2]; 65 °C) was 1.50 s, the “Time per isomerization event trans➔cis” value ([2]; 65 °C) was 2.60 s and the “Rate of isomerization cis➔trans” value [2, 8] was 0.667 s⁻¹. The “Rate of isomerization trans➔cis” value [2, 8] was 0.384 s⁻¹ and the “temperature at which exchange cross peaks first appeared” value ([2]; ZZ exchange at increasing temperature) was 55 °C.

For “wild type Bmal1: Flag-tagged mouse Bmal1 stably complemented in cells”, the circadian period [3] was “approximately 23 hours”.

With “PPIF: mitochondrial cyclophilin [reference compound]” the “activity” value (BMAL1 TAD) was “at least as active on the TAD as the top-ranked nuclear cyclophilins”.

In the case of “PPIH: human nuclear cyclophilin [reference compound]”, the “activity” value (BMAL1 TAD) is reported as “significantly increased the rate of isomerization in BMAL1”.

Reference: PMC5484534 (Molecular cell, 2017)
